Experiments:
[1] = target: human WT LFA-1 on stably transfected K562 cells (human) (UniProt P20701); assay: cell-based or functional assay
[2] = target: human HA (high-affinity) LFA-1 on stably transfected K562 cells (human) (UniProt P20701); assay: cell-based or functional assay
human HA (high-affinity) LFA-1 on stably transfected K562 cells (human), sequence (P20701 26-1170 K312C/K319C limits assumed, chain 1 of 2): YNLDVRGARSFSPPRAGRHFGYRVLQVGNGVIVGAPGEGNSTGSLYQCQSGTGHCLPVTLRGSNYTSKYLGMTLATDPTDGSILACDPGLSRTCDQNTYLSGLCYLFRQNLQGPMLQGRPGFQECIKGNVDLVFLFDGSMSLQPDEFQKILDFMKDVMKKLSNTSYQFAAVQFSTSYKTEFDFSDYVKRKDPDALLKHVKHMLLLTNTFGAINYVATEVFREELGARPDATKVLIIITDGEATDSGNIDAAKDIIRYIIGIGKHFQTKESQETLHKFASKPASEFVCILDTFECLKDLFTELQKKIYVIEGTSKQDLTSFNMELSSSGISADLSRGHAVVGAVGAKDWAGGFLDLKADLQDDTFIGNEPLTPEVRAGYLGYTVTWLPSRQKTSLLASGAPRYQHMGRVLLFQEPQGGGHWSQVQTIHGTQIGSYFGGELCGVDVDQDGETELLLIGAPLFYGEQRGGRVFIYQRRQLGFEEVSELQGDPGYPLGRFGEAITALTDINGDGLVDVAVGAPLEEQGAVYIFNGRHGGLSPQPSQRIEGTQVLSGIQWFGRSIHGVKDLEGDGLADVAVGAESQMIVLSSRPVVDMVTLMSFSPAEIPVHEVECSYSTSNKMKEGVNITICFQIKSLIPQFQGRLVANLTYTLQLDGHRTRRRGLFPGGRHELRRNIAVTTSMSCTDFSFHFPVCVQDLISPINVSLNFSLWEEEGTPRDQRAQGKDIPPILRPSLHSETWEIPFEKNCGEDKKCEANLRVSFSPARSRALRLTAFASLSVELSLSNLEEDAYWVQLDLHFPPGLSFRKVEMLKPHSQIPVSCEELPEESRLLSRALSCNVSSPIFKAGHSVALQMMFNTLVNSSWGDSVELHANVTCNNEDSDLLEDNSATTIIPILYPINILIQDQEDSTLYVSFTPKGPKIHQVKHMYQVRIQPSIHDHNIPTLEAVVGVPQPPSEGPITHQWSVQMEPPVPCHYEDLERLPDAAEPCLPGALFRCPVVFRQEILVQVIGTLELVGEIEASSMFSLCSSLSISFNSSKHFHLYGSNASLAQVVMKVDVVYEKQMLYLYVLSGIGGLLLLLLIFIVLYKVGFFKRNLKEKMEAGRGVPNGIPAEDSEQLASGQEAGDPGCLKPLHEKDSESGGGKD
human HA (high-affinity) LFA-1 on stably transfected K562 cells (human), sequence (P05107 23-769 limits assumed, chain 2 of 2, further chain): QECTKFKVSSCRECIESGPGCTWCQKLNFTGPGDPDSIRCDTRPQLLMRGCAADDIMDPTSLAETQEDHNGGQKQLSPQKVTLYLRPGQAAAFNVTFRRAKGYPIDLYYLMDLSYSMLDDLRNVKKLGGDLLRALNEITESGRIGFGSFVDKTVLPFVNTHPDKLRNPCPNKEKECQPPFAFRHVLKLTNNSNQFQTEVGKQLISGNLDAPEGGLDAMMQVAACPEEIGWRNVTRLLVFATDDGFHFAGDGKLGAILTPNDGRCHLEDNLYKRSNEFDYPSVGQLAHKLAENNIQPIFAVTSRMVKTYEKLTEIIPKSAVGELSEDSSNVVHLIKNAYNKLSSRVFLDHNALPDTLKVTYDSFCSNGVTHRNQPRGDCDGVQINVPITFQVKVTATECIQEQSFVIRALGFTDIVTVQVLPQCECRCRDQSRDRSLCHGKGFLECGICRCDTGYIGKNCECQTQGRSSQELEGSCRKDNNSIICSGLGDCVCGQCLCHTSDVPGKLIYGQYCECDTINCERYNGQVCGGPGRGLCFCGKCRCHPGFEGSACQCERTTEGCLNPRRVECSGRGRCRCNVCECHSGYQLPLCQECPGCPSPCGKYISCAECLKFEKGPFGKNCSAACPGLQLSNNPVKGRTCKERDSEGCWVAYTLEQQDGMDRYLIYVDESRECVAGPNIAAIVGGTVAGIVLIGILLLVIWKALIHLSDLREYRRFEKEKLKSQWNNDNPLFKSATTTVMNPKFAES

human WT LFA-1 on stably transfected K562 cells (human), sequence (P20701 26-1170, chain 1 of 2): as the sequence (P20701 26-1170 K312C/K319C limits assumed, chain 1 of 2) above, with C287K, C294K counted along it
human WT LFA-1 on stably transfected K562 cells (human), sequence (P05107 23-769, chain 2 of 2, further chain): as the sequence (P05107 23-769 limits assumed, chain 2 of 2, further chain) above

| Cy3+ K562 cells/Total K562 cells, % (in vivo Cy3-siRNA delivery) [1] | Cy3+ K562 cells/Total K562 cells, % (in vivo Cy3-siRNA delivery) [2] | Substance |
| --- | --- | --- |
| 23.3% | 88.1% | AL-57-protamine fusion protein (scFv AL-57 fused to human protamine residues 8-29, His6 tag) (from UniProt P04553 8-29) |
| 88.5% | 87.4% | TS1/22-protamine fusion protein (scFv TS1/22 fused to human protamine residues 8-29, His6 tag) (from UniProt P04553 8-29) |

Source: patent US20100008937A1
